{
  "source": "patent US20050069869A1",
  "about": "(UNIVERSITY OF MASSACHUSETTS, published 2005)",
  "binders": {"B1": {"name": "human monoclonal antibody 201.2 (antibody, V domains shown)", "VH": "EVQLVQSGGGLVHPGGSLRLSCAGSGFTFSSYDMHWVRQAPGKGLEWVSVVGTGDGTYYADSVKGRFTISRDNAKNSLYLQMNSLRAEDMAVYYCARDQWWGSDYWGQGTLVTVSS", "VL": "EIVLTQSPATLSLSPGERATLSCRASQSVSSYLAWYQQKPGQAPRLLIYDASNRATGIPARFSGSGSGTDFTLTISSLEPEDFAVYYCQQRSNWPLTFGGGTKVEIK", "notes": "also called 508-201; 7-508-201"}},
  "key": {"[1]": {"molecular_target": "S(470), amino acids 1-470 of the SARS-CoV S protein (SARS-CoV, UniProt P59594 15-470)", "experiment": "immunoprecipitation from culture supernatant, Western blot with anti-His6"}, "[2]": {"molecular_target": "S(490), amino acids 1-490 of the SARS-CoV S protein (SARS-CoV, UniProt P59594 15-490)", "experiment": "immunoprecipitation from culture supernatant, Western blot with anti-His6"}, "[3]": {"molecular_target": "T1, S(130), amino acids 1-130 of the SARS-CoV S protein (SARS-CoV, UniProt P59594 15-130)", "T1 sequence": "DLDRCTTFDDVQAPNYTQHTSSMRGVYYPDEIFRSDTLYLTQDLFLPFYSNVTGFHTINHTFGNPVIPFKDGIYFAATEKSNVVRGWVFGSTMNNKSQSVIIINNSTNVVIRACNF", "experiment": "immunoprecipitation from culture supernatant, Western blot with anti-His6"}, "[4]": {"molecular_target": "T2, S(269), amino acids 1-269 of the SARS-CoV S protein (SARS-CoV, UniProt P59594 15-269)", "T2 sequence": "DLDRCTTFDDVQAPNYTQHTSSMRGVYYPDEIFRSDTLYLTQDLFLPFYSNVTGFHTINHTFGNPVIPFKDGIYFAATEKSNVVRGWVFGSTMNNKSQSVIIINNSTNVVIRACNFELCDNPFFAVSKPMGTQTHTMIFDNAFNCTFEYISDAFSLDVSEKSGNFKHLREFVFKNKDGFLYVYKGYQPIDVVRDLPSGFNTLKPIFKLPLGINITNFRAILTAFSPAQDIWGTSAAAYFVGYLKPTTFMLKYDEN", "experiment": "immunoprecipitation from culture supernatant, Western blot with anti-His6"}, "[5]": {"molecular_target": "T3, S(170), amino acids 1-170 of the SARS-CoV S protein (SARS-CoV, UniProt P59594 15-170)", "T3 sequence": "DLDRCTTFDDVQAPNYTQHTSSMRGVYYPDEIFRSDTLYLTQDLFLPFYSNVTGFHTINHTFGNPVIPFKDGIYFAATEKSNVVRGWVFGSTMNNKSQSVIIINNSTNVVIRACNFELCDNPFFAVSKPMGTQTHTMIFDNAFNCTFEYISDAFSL", "experiment": "immunoprecipitation from culture supernatant, Western blot with anti-His6"}, "[6]": {"molecular_target": "T4, S(150), amino acids 1-150 of the SARS-CoV S protein (SARS-CoV, UniProt P59594 15-150)", "T4 sequence": "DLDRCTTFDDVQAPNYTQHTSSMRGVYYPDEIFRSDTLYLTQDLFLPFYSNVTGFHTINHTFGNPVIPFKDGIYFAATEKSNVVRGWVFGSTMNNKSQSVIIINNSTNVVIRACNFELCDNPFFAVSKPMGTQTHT", "experiment": "immunoprecipitation from culture supernatant, Western blot with anti-His6"}, "[7]": {"molecular_target": "SARS-CoV S protein of the virus (Urbani strain; virions and infected Vero cell extracts) (SARS-CoV, UniProt P59594 15-1190)", "experiment": "cell-based or functional assay"}, "[8]": {"molecular_target": "S(590), N-terminal 590 amino acids of the SARS-CoV S protein (SARS-CoV, UniProt P59594 15-590)", "experiment": "FACS; inhibition of myc-tagged S(590) binding to Vero E6 cells"}, "[9]": {"molecular_target": "S(1255), full length S protein with transmembrane and cytoplasmic domains, on transfected HEK 293 cells (SARS-CoV, UniProt P59594 15-1190)", "experiment": "FACS on HEK 293 cells transfected with S(1255); given as ED50"}},
  "data": [
    {"binder": "B1", "values": [
      {"measurement": "binding result", "setting": "[1]", "value": "no binding"},
      {"measurement": "binding result", "setting": "[2]", "value": "no binding"},
      {"measurement": "binding result", "setting": "[3]", "value": "no binding"},
      {"measurement": "binding result", "setting": "[4]", "value": "no binding"},
      {"measurement": "binding result", "setting": "[5]", "value": "no binding"},
      {"measurement": "binding result", "setting": "[6]", "value": "no binding"},
      {"measurement": "Viral Neut. in vitro (IC50, nM)", "setting": "[7]", "value": 0.7, "unit": "nM"},
      {"measurement": "IC50", "setting": "[8]", "value": 2, "unit": "nM"},
      {"measurement": "EC50", "setting": "[9]", "value": 6, "unit": "nM"}
    ]}
  ]
}
